Laboratory results: IntAct's records for PubMed 10228159

B1: Protein E7 (Human papillomavirus type 16), P03129 (parent)
chain: MHGDTPTLHEYMLDLQPETTDLYCYEQLNDSSEEEDEIDGPAGQAEPDRAHYNIVTFCCKCDSTLRLCVQSTHVDIRTLEDLLMGTLGIVCPICSQKP
B2: Protein E7 (Human papillomavirus type 16), P03129 (parent)
chain: B1 chain
partner: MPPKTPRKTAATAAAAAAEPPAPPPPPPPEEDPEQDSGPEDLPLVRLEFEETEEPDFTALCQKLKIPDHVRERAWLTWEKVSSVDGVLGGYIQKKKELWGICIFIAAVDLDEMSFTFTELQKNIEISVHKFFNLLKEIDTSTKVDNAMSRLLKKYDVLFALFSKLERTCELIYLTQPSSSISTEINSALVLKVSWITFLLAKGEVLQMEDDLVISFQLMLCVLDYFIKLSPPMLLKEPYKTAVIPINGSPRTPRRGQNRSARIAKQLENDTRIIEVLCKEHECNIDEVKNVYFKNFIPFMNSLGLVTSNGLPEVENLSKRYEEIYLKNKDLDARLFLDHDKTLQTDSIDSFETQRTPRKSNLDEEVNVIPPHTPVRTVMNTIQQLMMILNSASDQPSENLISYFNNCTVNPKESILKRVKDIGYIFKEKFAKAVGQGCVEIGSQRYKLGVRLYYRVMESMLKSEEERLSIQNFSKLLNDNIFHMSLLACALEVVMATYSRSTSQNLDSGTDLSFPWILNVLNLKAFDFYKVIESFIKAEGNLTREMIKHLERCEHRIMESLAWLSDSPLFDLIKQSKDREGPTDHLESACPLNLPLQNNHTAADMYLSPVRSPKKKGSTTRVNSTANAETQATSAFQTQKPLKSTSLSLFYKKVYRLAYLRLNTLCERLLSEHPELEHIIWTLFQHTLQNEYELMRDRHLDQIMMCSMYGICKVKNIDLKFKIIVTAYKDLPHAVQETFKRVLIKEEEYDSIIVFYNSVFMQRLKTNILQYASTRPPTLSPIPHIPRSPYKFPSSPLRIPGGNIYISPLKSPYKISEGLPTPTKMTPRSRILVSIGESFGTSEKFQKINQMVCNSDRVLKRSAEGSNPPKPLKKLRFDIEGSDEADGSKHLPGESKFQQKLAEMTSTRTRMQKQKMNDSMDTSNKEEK

Variants of: B1
Conditions: with chd4_human CHD4, Q14839
chd4_human CHD4, Q14839, sequence (Q14839 whole entry): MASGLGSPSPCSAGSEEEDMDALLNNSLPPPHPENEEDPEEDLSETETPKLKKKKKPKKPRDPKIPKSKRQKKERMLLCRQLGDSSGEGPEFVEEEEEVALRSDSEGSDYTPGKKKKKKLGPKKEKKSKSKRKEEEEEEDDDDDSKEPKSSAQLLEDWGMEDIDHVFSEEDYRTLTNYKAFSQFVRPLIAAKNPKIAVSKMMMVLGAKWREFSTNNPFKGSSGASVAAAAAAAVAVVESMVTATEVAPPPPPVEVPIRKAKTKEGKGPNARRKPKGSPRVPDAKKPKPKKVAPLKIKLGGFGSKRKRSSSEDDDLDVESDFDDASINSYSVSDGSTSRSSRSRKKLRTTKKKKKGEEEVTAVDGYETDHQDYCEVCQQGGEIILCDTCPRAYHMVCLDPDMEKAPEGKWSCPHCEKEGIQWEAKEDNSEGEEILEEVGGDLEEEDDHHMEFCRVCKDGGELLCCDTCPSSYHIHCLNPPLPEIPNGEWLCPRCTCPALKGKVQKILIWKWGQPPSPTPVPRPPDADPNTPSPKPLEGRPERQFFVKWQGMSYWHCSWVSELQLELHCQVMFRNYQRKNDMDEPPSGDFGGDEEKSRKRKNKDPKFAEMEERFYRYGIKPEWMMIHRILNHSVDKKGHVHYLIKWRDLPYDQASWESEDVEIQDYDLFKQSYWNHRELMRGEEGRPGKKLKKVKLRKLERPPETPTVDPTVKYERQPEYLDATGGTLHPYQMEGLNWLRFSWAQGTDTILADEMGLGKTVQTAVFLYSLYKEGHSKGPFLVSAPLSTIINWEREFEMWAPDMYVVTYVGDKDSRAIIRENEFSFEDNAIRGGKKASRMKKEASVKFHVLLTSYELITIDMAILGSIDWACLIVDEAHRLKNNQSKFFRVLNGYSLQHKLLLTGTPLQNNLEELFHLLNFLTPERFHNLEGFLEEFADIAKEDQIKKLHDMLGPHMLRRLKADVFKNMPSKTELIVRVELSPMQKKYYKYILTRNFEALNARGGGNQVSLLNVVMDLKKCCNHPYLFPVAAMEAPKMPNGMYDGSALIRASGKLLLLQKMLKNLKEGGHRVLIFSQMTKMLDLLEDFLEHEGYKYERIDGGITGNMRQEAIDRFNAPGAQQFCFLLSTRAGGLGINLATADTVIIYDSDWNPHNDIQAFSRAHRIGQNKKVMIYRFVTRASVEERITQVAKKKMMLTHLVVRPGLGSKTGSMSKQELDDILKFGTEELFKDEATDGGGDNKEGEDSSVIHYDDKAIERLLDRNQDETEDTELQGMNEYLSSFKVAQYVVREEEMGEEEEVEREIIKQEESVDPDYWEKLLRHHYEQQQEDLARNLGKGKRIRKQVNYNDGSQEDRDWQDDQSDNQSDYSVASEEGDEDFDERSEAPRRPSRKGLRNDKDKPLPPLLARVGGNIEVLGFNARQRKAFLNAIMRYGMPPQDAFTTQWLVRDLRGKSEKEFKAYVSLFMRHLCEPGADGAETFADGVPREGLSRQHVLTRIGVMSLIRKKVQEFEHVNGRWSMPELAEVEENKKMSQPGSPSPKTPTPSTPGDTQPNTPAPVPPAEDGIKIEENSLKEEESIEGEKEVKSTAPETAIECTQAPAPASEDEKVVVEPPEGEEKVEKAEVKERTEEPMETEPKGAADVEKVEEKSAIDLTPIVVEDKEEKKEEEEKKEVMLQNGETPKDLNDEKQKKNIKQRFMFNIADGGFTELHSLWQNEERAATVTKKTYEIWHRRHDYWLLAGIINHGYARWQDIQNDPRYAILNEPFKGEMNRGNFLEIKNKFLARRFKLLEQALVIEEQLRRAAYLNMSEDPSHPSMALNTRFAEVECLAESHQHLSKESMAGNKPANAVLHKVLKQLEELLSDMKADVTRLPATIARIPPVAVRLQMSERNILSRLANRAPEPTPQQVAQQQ

Variant | effect of a mutation on the interaction
L67R | decreasing interaction

Variants of: B2
Conditions: with rb_human RB1, P06400

Variant | effect of a mutation on the interaction
L67R | decreasing interaction
